Experimental data as given in patent US20080248043A1.

Legend:
[1] = target: antigen of Table 4 (native or denatured; not named); test: native conditions; dilution 1:5
[2] = target: antigen of Table 4 (native or denatured; not named); test: native conditions; 10 µg/ml
[3] = target: antigen of Table 4 (native or denatured; not named); test: denatured conditions; 10 µg/ml

Question: What does the source list for Cont?
Answer: OD (read-out not given) [1]: 0.052; OD (read-out not given) [2]: 0.738; OD (read-out not given) [3]: 0.146
